Square brackets hold non-standard residues; d marks the D form. Ends that are not written are not given here. Hyp = O=C(O)[C@@H]1C[C@@H](O)CN1
Key:
Test in all cases: ELISA; ELISA-based binding assay: pVHL variant (10 µg/ml, 100 µl) coated on the plate overnight at 4°C, blocked with 5% BSA; TAMRA-labelled Hyp402-ODD peptide added at increasing concentrations, 1 h at 25°C; high salt buffer (10 mM Tris-HCl pH 8.5, 500 mM NaCl) without Arginine; fluorescence at 580 nm
[1] = biological target: pVHL F119L mutant, 19 kDa form (human)
[2] = biological target: pVHL F136L mutant, 19 kDa form (human)
[3] = biological target: pVHL N78S mutant, 19 kDa form (human)

**Q.** What does the source list for LDLEALA[Hyp]YIPADDDFQLRS (also: TAMRA (rhodamine) label, end not given here) [Hyp402-ODD target peptide of HIF-1α]?
**A.** fold lower affinity than the WT [1]: 2.5 fold; fold lower affinity than the WT [2]: 5 fold; fold lower affinity than the WT [3]: 2 fold

— paper PMC3688787
